Reference: IntAct's records for PubMed 10835346

B1: Dolichol phosphate-mannose biosynthesis regulatory protein (Rattus norvegicus (Rat)), Q9Z325 (parent)
chain: MATGTDQAVGFGLVAVSLIIFTYYTTWVILLPFIDSQHVIHKYFLPRAYAVLLPLAAGLLLLLFVGLFITYVLLKSQKVTKKAQ
partner: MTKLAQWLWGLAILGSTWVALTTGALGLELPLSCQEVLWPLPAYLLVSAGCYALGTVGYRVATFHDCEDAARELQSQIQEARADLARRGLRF

Variants of: B1
Conditions: with dpm3_human DPM3, Q9P2X0
For MATGTDQAVGFGLVAVSLIILTSYTTWVILLPFIDSQHVIHKYFLPRAYAVLLPLAAGLLLLLFVGLFITYVLLKSQKVTKKAQ, the “effect of a mutation on the interaction” value was “decreasing interaction”.
